Results on 4 molecules are retold here after article PMC4866825, “The GIRK1 subunit potentiates G protein activation of cardiac GIRK1/4 hetero-tetramers” (eLife, 2016).

Data set [1] concerns the target GIRK1/4 hetero-tetramers, purified and reconstituted into proteoliposomes and planar lipid bilayers (human) (UniProt P48549).
Data set [2] deals with GIRK1(N217D)/4 hetero-tetramers, purified and reconstituted into proteoliposomes and planar lipid bilayers (human) (UniProt P48549). Conditions: scale: not given.
Data set [3] addresses GIRK4 homo-tetramers, purified and reconstituted into proteoliposomes and planar lipid bilayers (human) (UniProt P48544).
For data set [4] the target is unchanged. This is another data set of the same source.
Data set [5] deals with the molecule itself. Description: SEC; fluorescent size-exclusion chromatography (FSEC) of solubilized HEK293T cell lysate, Superose 6 10/300 GL; 50 mM HEPES-KOH pH 7.35, 150 mM KCl, 4% DM for solubilization; GFP fluorescence followed. Background: SEC sorts molecules by how far they enter the pores of the column.
Data set [6] addresses T1, GIRK1-His (human full-length GIRK1 with C-terminal PreScission site, eGFP and deca-histidine tag) (human, UniProt P48549 1-501).
T1 construct: G protein gated inward rectifier K+ channel subunit GIRK1, human, full length; also called His-tagged GIRK1; GIRK1 subunit; source: HEK293S GnTI- cells, BacMam transduced together with GIRK4-1D4 (1:1), solubilized in DM; not shown: eGFP, C-terminal, kept; His10, C-terminal, kept
T1 sequence (looked up): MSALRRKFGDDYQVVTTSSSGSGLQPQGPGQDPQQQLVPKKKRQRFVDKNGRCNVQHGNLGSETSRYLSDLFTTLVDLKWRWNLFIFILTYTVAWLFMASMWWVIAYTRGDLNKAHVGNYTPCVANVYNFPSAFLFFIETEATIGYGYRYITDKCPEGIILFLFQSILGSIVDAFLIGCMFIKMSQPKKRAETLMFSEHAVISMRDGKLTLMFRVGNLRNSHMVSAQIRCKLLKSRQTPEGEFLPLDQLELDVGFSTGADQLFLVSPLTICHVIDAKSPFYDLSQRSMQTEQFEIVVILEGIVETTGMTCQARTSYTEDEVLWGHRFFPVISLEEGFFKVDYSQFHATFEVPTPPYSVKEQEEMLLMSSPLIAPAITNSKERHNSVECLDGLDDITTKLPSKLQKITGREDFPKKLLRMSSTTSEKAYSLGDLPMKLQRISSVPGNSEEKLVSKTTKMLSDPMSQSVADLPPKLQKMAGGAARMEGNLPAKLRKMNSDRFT
Description: SEC; purified GIRK1/4 after PreScission cleavage of eGFP and tags, Superose 6 10/300 GL in 20 mM Tris-HCl pH 7.5, 150 mM KCl, 0.2% DM, 20 mM DTT, 1 mM EDTA; fractions of the peak run on 12% SDS-PAGE, band intensities compared. Conditions: both partners purified.

With “soluble Gβγ with a deca-histidine-tag instead of its physiological lipid anchor (sGβγ-His10) (from UniProt P62873 1-340; P59768 1-71) (complex)”, the b, cooperativity factor for Gβγ binding, from the fit of the equilibrium gating model to normalized planar lipid bilayer currents in data set [1] and in data set [3] was 0.6 throughout. Also, in data set [1] (scale: not given), the Kdb from a fit of the equilibrium gating model (two Na+ sites permanently occupied) to normalized planar lipid bilayer currents against Ni-NTA-lipid mole fraction at 0, 8 and 32 mM Na+ was 0.004. In addition, the Kdb from a fit of the equilibrium gating model (b and θ4,4 fixed) to normalized planar lipid bilayer currents against Ni-NTA-lipid mole fraction at 0, 8 and 32 mM Na+ in data set [2] was 0.0024. For the same molecule, the Kdb from a fit of the 25-state equilibrium gating model to normalized planar lipid bilayer currents against Ni-NTA-lipid mole fraction (membrane sGβγ-His10 density) at 0, 8 and 32 mM Na+ in data set [3] (scale: not given) stood at 0.004. The molecule also yielded a normalized GIRK4 current in planar lipid bilayers at 0.001 Ni-NTA mole fraction, 0 to 32 mM Na+ (normalized current) in data set [4] of 0.34.

B1: GIRK4 subunit fused to GFP (GIRK4-1D4-pEG BacMam construct) (natural protein, human, UniProt P48544 1-419, looked up)
chain: MAGDSRNAMNQDMEIGVTPWDPKKIPKQARDYVPIATDRTRLLAEGKKPRQRYMEKSGKCNVHHGNVQETYRYLSDLFTTLVDLKWRFNLLVFTMVYTVTWLFFGFIWWLIAYIRGDLDHVGDQEWIPCVENLSGFVSAFLFSIETETTIGYGFRVITEKCPEGIILLLVQAILGSIVNAFMVGCMFVKISQPKKRAETLMFSNNAVISMRDEKLCLMFRVGDLRNSHIVEASIRAKLIKSRQTKEGEFIPLNQTDINVGFDTGDDRLFLVSPLIISHEINQKSPFWEMSQAQLHQEEFEVVVILEGMVEATGMTCQARSSYMDTEVLWGHRFTPVLTLEKGFYEVDYNTFHDTYETNTPSCCAKELAEMKREGRLLQYLPSPPLLGGCAEAGLDAEAEQNEEDEPKGLGGSREARGSV
notes: G protein gated inward rectifier K+ channel subunit GIRK4, human, full length; A PreScission protease cleavage site stands between GIRK4 and eGFP-1D4; not cut for FSEC; also called GIRK4 homo-tetramers; source: HEK293T, transiently transfected, in solubilized cell lysate (4% DM); not shown: eGFP, C-terminal, kept; 1D4 peptide, C-terminal, kept
Turning to B1, the stoichiometry N – broadly, the number of molecules, sites or subunits per partner or assembly – in data set [5] was 4 subunits.

B2: GIRK4-1D4 (human full-length GIRK4 with C-terminal PreScission site, eGFP and 1D4 peptide tag) (natural protein, UniProt P48544 1-419, looked up)
chain: B1 chain
notes: G protein gated inward rectifier K+ channel subunit GIRK4, human, full length; also called 1D4-tagged GIRK4; GIRK4 subunit; source: HEK293S GnTI- cells, BacMam transduced together with GIRK1-His (1:1), solubilized in DM; not shown: eGFP, C-terminal, kept; 1D4 peptide, C-terminal, kept
In the case of B2, the “stoichiometry N” value in data set [6] was 1 GIRK4 per GIRK1 (2:2 in the tetramer).

B3: GIRK1 subunit fused to GFP (GIRK1-His10-pEG BacMam construct) (natural protein, human, UniProt P48549 1-501, looked up)
chain: T1 sequence (looked up)
notes: G protein gated inward rectifier K+ channel subunit GIRK1, human, full length; A PreScission protease cleavage site stands between GIRK1 and eGFP-His10; not cut for FSEC; also called GIRK1 homo-tetramers; source: HEK293T, transiently transfected, in solubilized cell lysate (4% DM); not shown: eGFP, C-terminal, kept; His10, C-terminal, kept
For B3, the “stoichiometry N” value in data set [5] is 4 subunits.
